Results published in publication PMC9876794 (2022).

B1: D009 (antibody, V domains shown)
VH: EVQLLESGGGLVQPGGSLRLSCAATGFTFGSYTMTWVRQAPGKGLEWVSSISVSGRRTYYAGSVQGRFTVSRDNSMNALFLQMNSLRADDTAVYYCARDAPREAYYDRTGHYIFYYGMDLWGQGTTVTVSS
VL: EIVMTQSPATLSVSPGERATLSCRASQSVSDNLAWYQQKPGQAPRLLIYGASTRAIGIPDRFTGSGSGTEFTLTISSLQSEDFAVYYCQHYNNGPSVGFGQGTRVEFK
B2: D108 (antibody, V domains shown)
VH: QVQLVQSGAEVKKPGASVKVSCKASGYTFTSSDINWVRQATGQGLEWVGWMNPNSGNTGYAQKFQGRVTMTRNTSISTAYMELSSLRSEDTAVYYCASGPYWSGYYYYFDNWGQGTLVTVSS
VL: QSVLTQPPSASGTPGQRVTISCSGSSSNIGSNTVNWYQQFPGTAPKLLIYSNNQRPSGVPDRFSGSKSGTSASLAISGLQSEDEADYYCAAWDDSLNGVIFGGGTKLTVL
B3: C2738 (antibody, V domains shown)
VH: QVQLQESGPGLVKPSETLSLTCTVSGGSISSYYWSWIRQPAGKGLEWIGRIYTSGSTNYNPSLKSRVTMSVDTSKNQFSLKLSSVTAADTAVYYCARDLWGGSRPFNWFDPWGQGTLVTVSS
VL: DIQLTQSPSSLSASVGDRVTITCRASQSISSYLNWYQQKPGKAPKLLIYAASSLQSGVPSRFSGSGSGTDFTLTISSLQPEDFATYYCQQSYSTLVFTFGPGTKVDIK
B4: C2697 (antibody, V domains shown)
VH: EVQLVESGGGLVQPGGSLRLSCAASGFTFSSSYSMNWVRQAPGKGLEWVSYISSSSSTIYYADSVKGRFTISRDNAKNSLYLQMNSLRDEDTAVYYCARHYGDKTYYFYGMDVWGQGTTVTVSS
VL: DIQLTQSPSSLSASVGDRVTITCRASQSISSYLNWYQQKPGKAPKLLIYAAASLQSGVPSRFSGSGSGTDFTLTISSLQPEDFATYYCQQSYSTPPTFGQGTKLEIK
B5: D053 (antibody, V domains shown)
VH: EVQLVESGGGLVKPGGSLRLSCAASGFTFSNAWMSWVRQAPGKGLEWIGRIKSNTDGGTIDYAAPVKGRFTISRDDSKNTLYLQMNSLKTEDTAVYYCTTDGAFFVVADPFDYWGQGTLVTVSS
VL: DIQMTQSPSSLSASVGDRVTITCRASQSMTNYLNWYQQKPGKAPELLIYGVSSLQSGVPSRFSGSGSGTDFTLTISSLQPEDFATYYCQQSYRTPRTFGQGTKVEIK
B6: C2712 (antibody, V domains shown)
VH: EVQLVESGGGLVQPGGSLRLSCVASGFTFSSDDIHWVRQATGKGLEWVSGIGTAGDTYYAGSVKGRFTISRENAKNSLYLQMKSLRAGDTAVYYCARGVQSWLRGYYYYYMDVWGKGTTVTVSS
VL: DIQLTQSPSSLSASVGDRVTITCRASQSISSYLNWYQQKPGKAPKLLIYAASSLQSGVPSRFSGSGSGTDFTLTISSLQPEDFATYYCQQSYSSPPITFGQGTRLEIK
B7: C2698 (antibody, V domains shown)
VH: EVQLVESGGGLAQPGRSLRLSCAASGFKFDDYAMHWVRQVPGQGLEWVSGIDWNSGIIGYADSVMGRFTISRDNAKKSLYLQMNSLRTEDTALYYCAKSGGFGEFKWFDPWGQGTLVTVSS
VL: EIVMTQSPATLSVSPGERATLSCRASQSVSSNLAWYQQKPGQAPRLLIYGASTRATGFPARFSGSGSGTEFTLTISRLQSEDFAVYYCQQYNKWPRTFGQGTKLEIK
B8: C2715 (antibody)
chain 1: not shown
chain 2: DIQLTQSPSSVSASVGDRVTITCRASQGISSWLAWYQQKPGKAPKLLIYAASSLQSGVPSRFSGSGSGTDFTLTISSLQPEDFATYYCQQANSFPRTFGQGTKVEIK
B9: D038 (antibody, V domains shown)
VH: EVQLVQSGAEVKKPGESLKISCKGSGYSFTSYWIAWVRQMPGKGLEWMGIIYPGDSDTRYSPSFQGQVTISADKSISTAYLQWSSLKASDTAMYYCARQGYSYGYVDYWGQGTLVTVSS
VL: NFMLTQPHSVSESPGKTVTISCTRSSGSIASNYVQWYQQRPGSAPTTVIYEDNQRPSGVPDRFSGSIDSSSNSASLTISGLKTEDEADYYCQSYDSSNWVFGGGTKLTVL
B10: C2702 (antibody, V domains shown)
VH: EVQLVESGGGLVQPGGSLRLSCAASGFTFSSYSMNWVRQAPGKGLEWVSYISSSSSTIYYADSVKGRFTISRDNAKNSLYLQMNSLRDEDTAVYYCASFLWDHSGYDLLFGMDVWGQGTTVTVSS
VL: not shown
B11: D005 (antibody, V domains shown)
VH: QVQLVQSGAEVKKPGASVKVSCKASGYTFTNYYIHWVRQAPGQGLEWMGIINPSAGSTTYAQKFQGRVTMTSDTSTSTVYMELSSLRSEDTAVYYCARAGELIPAARASFQHWGQGTLVTVSS
VL: DIQMTQSPSTLSASVGDRVTITCRASQSISTWLAWYQQKPGKAPKILIYKASSLESGVPSRFSGSGSGTEFTLTLSSLQPDDFATYYCQQYNSYSPTFGQGTKVEIK
B12: D148 (antibody, V domains shown)
VH: QLQLQESGPGLVKPSETLSLTCTVSGGSISSSSYYWGWIRQPPGKGLEWIGSIYYSGSTYYNPSLKSRVTISVDTSKNQFSLKLSSVTAADTAVYYCARQTIYYDSSGSLEVEPMDVWGQGTTVTVSS
VL: not shown
B13: D007 (antibody, V domains shown)
VH: QVQLVESGGGVVQPGGSLRLSCAASGFTFSSYGMHWVRQAPGKGLEWVAFIRYDGSNKYYADSVKGRFTISRDNSKNTLYLQMNSLRAEDTAVYYCAKDQYYYGSGSYSDYWGQGTLVTVSS
VL: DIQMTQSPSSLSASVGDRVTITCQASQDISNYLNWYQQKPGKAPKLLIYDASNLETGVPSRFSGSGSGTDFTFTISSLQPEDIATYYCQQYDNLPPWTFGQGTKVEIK
B14: C2701 (antibody, V domains shown)
VH: EVQLVESGGGLVQPGGSLRLSCAASGFTVSSNYMSWVRQAPGKGLEWVSVIYSGGSTYYADSVKGRFTISRHNSKNTLYLQMNSLRAEDTAVYYCARDYGDLFFDYWGQGTTVTVSS
VL: not shown
B15: C2717 (antibody, V domains shown)
VH: EVQLVESGGGLVQPGGSLRLSCAASGFTVSSNYMSWVRQAPGKGLEWVSVIYSGGSTYYADSVKGRFTISRDNSKNTLYLQMNSLRAEDTAVYYCARELYSSSSYFDYWGQGTLVTVSS
VL: QSVLTQPPSVSGAPGQRVTISCTGSSSNIGAGYDVHWYQQLPGTAPKLLIYGNSNRPSGVPDRFSGSKSGTSASLAITGLQAEDEADYYCQSYDSSLSGSGVFGGGTKLTVL
B16: C2731 (antibody, V domains shown)
VH: QVQLQQWGAGLLKPSETLSRTCAVYGGSFSGYYWSWIRQSPGKGLEWIGEINHRGSTNYNPSLKSRVTISVDTSKNQLSLELRSVTAADTAVYYCARSPGWTTVTRPFDYWGQGALVTVSS
VL: EIVLTQSPGTLSLSPGERATLSCRASQSVSSNYLAWYQQKPGQAPRLLVYGASNRATGIPDRFSGSGSGTDFTLTISRLEPEDFAVFYCQQYSSSPVTFGQGTRLEIK
B17: D083 (antibody, V domains shown)
VH: EVQLVQSGAEVKKPGESLKISCKGSGYSFTSHWIGWVRQMPGKGLEWMGIIYPGDSDTRYSPSFQGQVTISADKSISTAYLQWSSLKASDTAMYYCARHIKSDLWFGEKDSWGQGTLVTVSS
VL: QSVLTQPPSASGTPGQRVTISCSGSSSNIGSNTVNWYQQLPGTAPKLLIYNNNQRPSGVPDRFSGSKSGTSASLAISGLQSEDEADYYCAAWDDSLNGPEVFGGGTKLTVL
B18: D103 (antibody, V domains shown)
VH: QVQLVESGGGVVQPGRSLRLSCAASGFTFSSYGMHWVRQAPGKGLEWVAVISYDGSNKYYADSVKGRFTISRDNSKNTLYLQMNSLRAEDTAVYYCAKGGYYDSSAYYGPLDYWGQGTLVTVSS
VL: SYVLTQPPSVSVAPGKTARITCGGNNIGSKSVHWYQQKPGQAPVLVVYDDSDRPSGIPERFSGSNSGNTATLTISRVEAGDEADYYCQVWDSSSDHWVFGGGTKLTVL
B19: D126 (antibody, V domains shown)
VH: QVQLVQSGAEVKKPGASVKVSCKASGYTFTSYGISWVRQAPGQGLEWMGWISAYNGNTNYAQKLQGRVTMTTDTSTSTAYMELRSLRSDDTAVYYCARDDTSGWYTGDAFDIWGQGTMVTVSS
VL: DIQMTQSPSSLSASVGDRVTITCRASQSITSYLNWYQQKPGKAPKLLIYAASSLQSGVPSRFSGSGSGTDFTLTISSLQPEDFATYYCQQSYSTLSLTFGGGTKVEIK
B20: D173 (antibody, V domains shown)
VH: EVQLVQSGAEVKKPGESLRISCKGSGYSFTSYWISWVRQMPGKGLEWMGRIDPSDSYTNYSPSFQGHVTISADKSISTAYLQWSSLKASDTAMYYCASQGLVPAAIEIWDYWGQGTLVTVSS
VL: EIVLTQSPATLSLSPGERATLSCRASQSVSSYLAWYQQKPGQAPRLLIYDASNRATGIPARFSGSGSGTDFTLTISSLEPEDFAVYYCQQHSNWPLTFGGGTKVEIK
B21: C2722 (antibody, V domains shown)
VH: EVQLVESGGGLVQPGGSLRLSCAASGFTFSSYSMNWVRQAPGKGLEWVSYISSSSSTIYYADSVKGRFTISRDNAKNSLYLQMNSLRAEDTAVYYCARDDGGGAYYDFWSGYYGDYWGQGTLVTVSS
VL: EIVLTQSPATLSLSPGERATLSCRASQSVSSYLAWYQQKPGQAPRLLIYDASNRATGIPARFSGSGSGTDFTLTISSLEPEDFAVYYCQQRSNWPPFTFGPGTKVDIK
B22: D145 (antibody, V domains shown)
VH: QVQLVESGGGVVQPGRSLRLSCAASGFTFSSYGMHWVRQAPGKGLEWVAVISYDGSNKYYADSVKGRFTISRDNSKNTLYLQMNSLRAEDTAVYYCAKGSGPYYYDSSGYYSLFDYWGQGTLVTVSS
VL: EIVMTQSPATLSVSPGERATLSCRASQSISSNLAWYQQKPGQAPRLLIDGASTRATGIPARFSGSGSGTEFTLTISSLQSEDFAVYYCQQYNNWPTFGQGTKLEIK
B23: D155 (antibody, V domains shown)
VH: QLQLQESGPGLVKPSETLSLTCTVSGGSISSSSYYWGWIRQPPGKGLEWIGSIYYSGSTYYNPSLKSRVTISVDTSKNQFSLKLSSVTAADTAVYYCARQPYYYDSSGINRAFDIWGQGTMVTVSS
VL: QSVLTQPRSVSGSPGQSVTISCTGTSSDVGGYNYVSWYQQHPGKAPKLMIYDVSKRPSGVPDRFSGSKSGNTASLTISGLQAEDEADYYCCSYAGTVVFGGGTKLTVL
B24: C2710 (antibody, V domains shown)
VH: EVQLVESGGGLVQPGGSLRLSCAASGFTFSSYWMSWVRQAPGKGLEWVANINQDGSEIHYVDSVKGRFTISRDNAKNSLYLQMNSLRAEDTAVYYCAREGGPYDFWSGSNWFDPWGQGTLVTVSS
VL: QSALTQPASVSGSPGQSITISCTGTSSDVGGYNFVSWYQQRPGKAPKLMIYEVHNRPSGVSNHFSGSKSGNTASLTISGLQAEDEADYYCSSYTSNSLYVFGTGTKVTVL

These binders were tested against T1, SARS-CoV-2 spike RBD (WT) (Severe acute respiratory syndrome …, UniProt P0DTC2) (assay: ELISA).
Design: unit not given here

Compared with B1, B2 is higher in binding score: 2390 for the first, 6120 for the second.

First: B3
Second: B4
The binding score of the first is lower: 21.1 for the first, 2060 for the second.

Going from B5 to B6, the binding score falls from 3050 to 7.83.

Compared with B7, B8 is higher in binding score: 79.2 for the first, 189 for the second.

Going from B9 to B10, the binding score falls from > 10000 to 295.

Compared with B11, B12 is lower in binding score: 96 for the first, 29 for the second.

First: B13
Second: B14
The binding score of the first is higher: 8280 for the first, 170 for the second.

First: B15
Second: B16
The binding score of the first is lower: 124 for the first, 4400 for the second.

Compared with B17, B18 is higher in binding score: 62.7 for the first, > 10000 for the second.

Going from B19 to B20, the binding score falls from 973 to 181.

Compared with B21, B22 is lower in binding score: 177 for the first, 0.826 for the second.

Compared with B23, B24 is lower in binding score: 1000 for the first, 9.12 for the second.

What follows are binders tested against T1, SARS-CoV-2 spike RBD (WT) (assay: BLI).

B1 and B2 are within 1.5-fold of each other in Kd: 5440 nM for the first, 6840 nM for the second.

Compared with B3, B4 is 9.9-fold higher in Kd: 10.2 nM for the first, 101 nM for the second.

Going from B5 to B6, the Kd falls from 2420 nM to 19.6 nM (120-fold).

Going from B7 to B8, the Kd falls from 152 nM to 63.4 nM (2.4-fold).

Compared with B9, B10 is 2.4-fold lower in Kd: 306 nM for the first, 125 nM for the second.

Going from B11 to B12, the Kd falls from 49.8 nM to 6.46 nM (7.7-fold).

Going from B13 to B14, the Kd falls from 6720 nM to 88.4 nM (76-fold).

B15 and B16 are within 1.5-fold of each other in Kd: 153 nM for the first, 143 nM for the second.

Going from B17 to B18, the Kd rises from 12.3 nM to 2700 nM (220-fold). The first binds more tightly here.

Compared with B19, B20 is 3.6-fold higher in Kd: 16.7 nM for the first, 60.3 nM for the second. The first binds more tightly here.

B21 and B22 are within 1.5-fold of each other in Kd: 43.3 nM for the first, 46.4 nM for the second.

Going from B23 to B24, the Kd falls from 116 nM to 11.9 nM (9.7-fold). The second binds more tightly here.
